B1: RLuc8.6-KR: fusion protein of RLuc8.6 and KillerRed without lead peptide, 69 kDa (protein)
chain: MRGSHHHHHHGMASMTGGQQMGRDLYDDDDKDPMASKVYDPEQRKRMITGPQWWARCKQMNVLDSFINYYDSEKHAENAVIFLHGNATSSYLWRHVVPHIEPVARCIIPDLIGMGKSGKSGNGSYRLLDHYKYLTAWFELLNLPKKIIFVGHDWGSALAFHYAYEHQDRIKAIVHMESVVDVIESWMGWPDIEEELALIKSEEGEKMVLENNFFVETLLPSKIMRKLEPEEFAAYLEPFKEKGEVRRPTLSWPREIPLVKGGKPDVVQIVRNYNAYLRASDDLPKLFIESDPGFFYNAIVEGAKKFPNTEFVKVKGLHFLQEDAPDEMGKYIKSFVERVLKNEQEFGGGMLCCMRRTKQVEKNDEDQKISEGGPALFQSDMTFKIFIDGEVNGQKFTIVADGSSKFPHGDFNVHAVCETGKLPMSWKPICHLIQYGEPFFARYPDGISHFAQECFPEGLSIDRTVRFENDGTMTSHHTYELDDTCVVSRITVNCDGFQPDGPIMRDQLVDILPNETHMFPHGPNAVRQLAFIGFTTADGGLMMGHFDSKMTFNGSRAIEIPGPHFVTIITKQMRDTSDKRDHVCQREVAYAHSVPRITSAIGSDED
modifications: pRSET-RLuc8.6-KillerRed
B2: KR: first protein KillerRed, ROS-generating protein (superoxide), expressed from pRSET-KillerRed, 31 kDa (protein)
chain: MRGSHHHHHHGMASMTGGQQMGRDLYDDDDKDPMLCCMRRTKQVEKNDEDQKISEGGPALFQSDMTFKIFIDGEVNGQKFTIVADGSSKFPHGDFNVHAVCETGKLPMSWKPICHLIQYGEPFFARYPDGISHFAQECFPEGLSIDRTVRFENDGTMTSHHTYELDDTCVVSRITVNCDGFQPDGPIMRDQLVDILPNETHMFPHGPNAVRQLAFIGFTTADGGLMMGHFDSKMTFNGSRAIEIPGPHFVTIITKQMRDTSDKRDHVCQREVAYAHSVPRITSAIGSDED
modifications: pRSET-KillerRed
notes: first protein KillerRed, ROS-generating protein (superoxide), expressed from pRSET-KillerRed, 31 kDa
B3: RLuc8.6-KR-LP: fusion protein of RLuc8.6, KillerRed and lead peptide WLEAAYQRFL, 71 kDa (protein)
chain: MRGSHHHHHHGMASMTGGQQMGRDLYDDDDKDPMASKVYDPEQRKRMITGPQWWARCKQMNVLDSFINYYDSEKHAENAVIFLHGNATSSYLWRHVVPHIEPVARCIIPDLIGMGKSGKSGNGSYRLLDHYKYLTAWFELLNLPKKIIFVGHDWGSALAFHYAYEHQDRIKAIVHMESVVDVIESWMGWPDIEEELALIKSEEGEKMVLENNFFVETLLPSKIMRKLEPEEFAAYLEPFKEKGEVRRPTLSWPREIPLVKGGKPDVVQIVRNYNAYLRASDDLPKLFIESDPGFFYNAIVEGAKKFPNTEFVKVKGLHFLQEDAPDEMGKYIKSFVERVLKNEQEFGGGMLCCMRRTKQVEKNDEDQKISEGGPALFQSDMTFKIFIDGEVNGQKFTIVADGSSKFPHGDFNVHAVCETGKLPMSWKPICHLIQYGEPFFARYPDGISHFAQECFPEGLSIDRTVRFENDGTMTSHHTYELDDTCVVSRITVNCDGFQPDGPIMRDQLVDILPNETHMFPHGPNAVRQLAFIGFTTADGGLMMGHFDSKMTFNGSRAIEIPGPHFVTIITKQMRDTSDKRDHVCQREVAYAHSVPRITSAIGSDEDGGGWLEAAYQRFL
modifications: pRSET-RLuc8.6-KillerRed-Lead peptide

Columns and labels:
MCF-7 cells = experiment: Flow cytometric analysis of KR, SYTOX Green and DAPI; type: cell-based, human
Procedure: MCF-7 cells were seeded at 5×10^5 cells/mL in a 96-well plate (SPL Cell Culture Plate, 96 well (SPL, Cat #30096)), and cultured at 37° C. for 24 hours (overnight). After the culture, the cells were washed with FBS & Phenol red-free media (RPMI), and 100 μL of FBS & Phenol red-free media (RPMI) containing a purified protein (final concentration: 10 μM), followed by reaction at 37° C. for 24 hours (overnight).
After washing with KillerRed: FBS & Phenol red-free media (RPMI), the cells were detached by treating 100 μL of Trypsin EDTA (Gibco™), and then centrifuged at 1,000 rpm for 3 minutes. The cells were filtered through a cell strainer (SPL, cat #93070) and resuspended in 400 μL of 1×DPBS containing 5% FBS.
The cells were washed with SYTOX Green: FBS & Phenol red-free media (RPMI), and 100 μL (final concentration: 150 μM) of FBS & Phenol red-free media (RPMI) containing a Co-h substrate solution was added, followed by incubation for 24 hours at 37° C. 50 μL of SYTOX Green (final concentration: 261 nM) staining DNA of dead cells was added without washing the cells, followed by reaction at 37° C. for 30 minutes. Without washing, the cells were detached by treatment with 100 μL of trypsin EDTA (Gibco™), and centrifuged at 1,000 rpm for 3 minutes. The cells were filtered through a cell strainer (SPL, cat #93070) and resuspended in 400 μL of 1×DPBS containing 5% FBS.
The cells were washed with DAPI: FBS & Phenol red-free media (RPMI), and 100 μL (final concentration: 150 μM) of FBS & Phenol red-free media (RPMI) containing a Co-h substrate solution was added, followed by incubation for 24 hours at 37° C. The cells were washed with FBS & Phenol red-free media (RPMI), and then 100 μL of media (RPMI) was added thereto. 10 μL of DAPI staining DNA of live cells was added, followed by reaction at 37° C. for 30 minutes. The cells were detached by treatment with 100 μL of trypsin EDTA (Gibco™) without washing, followed by centrifugation at 1,000 rpm for 3 minutes. The cells were filtered through a cell strainer (SPL, cat #93070) and resuspended in 400 μL of 1×DPBS containing 5% FBS.

superoxide = experiment: ROS generation: superoxide measured by decrease of DHE fluorescence; type: biochemical
Procedure: A ROS-generating effect of the RLuc8.6-KR protein was confirmed using 100 μL of buffer (50 mM HEPES-KOH, 24° C., pH 7.4) containing RLuc8.6-KR protein (final concentration: 10 μM), dihydroethidium (DHE, Sigma Aldrich, USA; final concentration of 100 μM) whose fluorescence intensity decreases in the presence of superoxide and a Co-h substrate solution. The rate of decrease in fluorescence intensity was measured at the excitation wavelength of 370 nm and the emission wavelength of 420 nm of DHE using a plate reader.
A ROS-generating effect of RLuc8.6-KR protein was measured using RLuc8.6-KR protein (final concentration: 10 μM) and DHE (final concentration: 100 μM) whose fluorescence intensity decreases in the presence of superoxide, and
Here, the active oxygen generation rate of each protein was measured using 100 μL of buffer (50 mM HEPES-KOH, 24° C., pH 7.4) containing FMN (final concentration: 150 μM) and a Co-h substrate solution (final concentration: 150 μM).
The rate of decrease in fluorescence intensity was measured at the excitation wavelength of 370 nm and the emission wavelength of 420 nm of DHE using a plate reader. In addition, the rate of decrease in fluorescence intensity was measured at the excitation wavelength of 380 nm and the emission wavelength of 430 nm of ADPA using a plate reader.
(§1) A ROS generation rate was measured using 100 μL of buffer (50 mM HEPES-KOH, 24° C., pH 7.4) containing the KR protein, RLuc8.6-KR protein (final concentration: 10 μM) and DHE (final concentration: 100 μM) whose fluorescence intensity decreases in the presence of superoxide.
A ROS generation rate was measured using 100 μL of buffer (50 mM HEPES-KOH, 24° C., pH 7.4) containing MS, RLuc8-MS (final concentration: 10 μM), DHE (final concentration: 100 μM) whose fluorescence intensity decreases in the presence of superoxide and FMN (final concentration: 150 μM).
After irradiation with light (referred to as +LED Light) at 10 mW/cm^2 for 30 minutes, the rate of decrease in fluorescence intensity was measured at the excitation wavelength of 370 nm and the emission wavelength of 420 nm of DHE using a plate reader.
as §1, with “μM),” for “μM) and”, “superoxide and a Co-h substrate solution (final concentration: 150 μM).” for “superoxide.”
A ROS generation rate was measured using 100 μL of buffer (50 mM HEPES-KOH, 24° C., pH 7.4) containing MS, RLuc8-MS (final concentration: 10 μM), DHE (final concentration: 100 μM) whose fluorescence intensity decreases in the presence of superoxide, FMN (final concentration: 150 μM) and a Co-h substrate solution (final concentration: 150 μM). The rate of decreasing fluorescence intensity was measured at an excitation wavelength of 370 nm and an emission wavelength of 420 nm of DHE using a plate reader.
A ROS generation rate was measured by reaction of 100 μL of buffer (50 mM HEPES-KOH, 24° C., pH 7.4) containing RLuc8.6-KR protein (final concentration: 10 μM), DHE (final concentration: 100 μM) whose fluorescence intensity decreases in the presence of superoxide, ROS scavenger (SOD (superoxide scavenger, final concentration 800U/ml), sodium azide (Singlet oxygen scavenger; final concentration: 100 mM) and D-mannitol (hydroxyl radical scavenger; final concentration: 100 mM), respectively) for 30 minutes. […]

[1] = MCF-7, protein 10 μM, Co-h 150 μM 24 hours

Molecule	number of cells stained with DAPI (FACS) (MCF-7 cells; [1])	superoxide generation rate after Co-h substrate reaction (superoxide; Co-h 150 μM, 30-min reaction, without light irradiation, protein 10 μM, DHE)	reaction time with Co-h until which the superoxide generation rate increased, then constantly maintained (superoxide; protein 10 μM, Co-h 150 μM, DHE) [min]	Co-h concentration until which the superoxide generation rate increased, then constantly maintained (superoxide; protein 10 μM, DHE 100 μM, substrate reaction time 5 minutes) [µM]	superoxide generation rate after light irradiation (superoxide; 10 mW/cm^2, 30 minutes, no substrate, protein 10 μM, DHE)	superoxide generation rate by Co-h reaction after ROS scavenger treatment (superoxide; RLuc8.6-KR 10 μM, Co-h 150 μM 30 minutes, SOD 800 U/ml, sodium azide 100 mM or D-mannitol 100 mM)	number of cells exhibiting fluorescence of KillerRed (FACS) (MCF-7 cells; MCF-7, protein 10 μM 24 hours)	number of cells exhibiting SYTOX Green (FACS) (MCF-7 cells; [1])
B1	increases without a cytotoxic effect	highest superoxide generation rate	30	150				
B2					higher superoxide generation rate	lowest when SOD was treated		
B3	decreased						increased	increased

Reference: patent US20220040304A1, “A COMPOSITION FOR CANCER CELL DEATH AND ITS USE” (Industry-University Cooperation Foundation Hanyang …, priority 2018, published 2022)
